From patent US20260263521A1 (AIMED BIO, published 2026)
Several values for one entry are separate records, joined by “and”; a condition that tells them apart may be missing. Equal entries are not always repeated.

B1: P001002 (IgG) (antibody, V domains shown)
VH: EVQLLESGGGLVQPGGSLRLSCAASGFTFSSYAMSWVRQAPGKGLEWVSWISYDSSSKYYADSVKGRFTISRDNSKNTLYLQMNSLRAEDTAVYYCARGVVQPYLWTEFDYWGQGTLVTVSS
VL: QSVLTQPPSASGTPGQRVTISCSGSSSNIGSNYVNWYQQLPGTAPKLLIYSDSHRPSGVPDRFSGSKSGTSASLAISGLRSEDEADYYCGSWDDSLSGYVFGGGTKLTVL
B2: P001012 (IgG) (antibody, V domains shown)
VH: EVQLLESGGGLVQPGGSLRLSCAASGFTFSGYDMSWVRQAPGKGLEWVSGISSSGGNKYYADSVKGRFTISRDNSKNTLYLQMNSLRAEDTAVYYCARAIRPCISAPCYYDDAMDVWGQGTLVTVSS
VL: QSVLTQPPSASGTPGQRVTISCTGSSSNIGSNYVSWYRQLPGTAPKLLIYSDSQRPSGVPDRFSGSKSGTSASLAISGLRSEDEADYYCGSWDYSLSAYVFGGGTKLTVL
B3: P001018v26 (antibody, V domains shown)
VH: QVQLVQSGAEVKKPGASVKVSCKASGYTFTSYVMHWVRQAPGQGLEWMGYINPYNDDTNYNEKFKGRVTMTRDTSTSTVYMELSSLRSEDTAVYYCAREDYYGSRWGTWGQGTLVTVSS
VL: DIVLTQSPASLAVSPGQRATITCRASKSVSTSGYSYMHWYQQKPGQPPKLLIYLASNLESGVPARFSGSGSGTDFTLTINPVEANDTANYYCQHSHELLTFGQGTKVEIK
notes: H3-Y102T, L3-R92H

Legend:
[1] = biological target: T1, human CD200R1 expressed on cells (Jurkat-CD200R1, U937-CD200R1, HH cells) (human, UniProt Q8TD46 25-348); assay: flow cytometry on Jurkat-CD200R1 and HH cells, 500 nM antibody in IgG1 form
T1 construct: whole, on cells; also called HH (CRL-2105); cell surface-expressed CD200R1
T1 sequence (looked up): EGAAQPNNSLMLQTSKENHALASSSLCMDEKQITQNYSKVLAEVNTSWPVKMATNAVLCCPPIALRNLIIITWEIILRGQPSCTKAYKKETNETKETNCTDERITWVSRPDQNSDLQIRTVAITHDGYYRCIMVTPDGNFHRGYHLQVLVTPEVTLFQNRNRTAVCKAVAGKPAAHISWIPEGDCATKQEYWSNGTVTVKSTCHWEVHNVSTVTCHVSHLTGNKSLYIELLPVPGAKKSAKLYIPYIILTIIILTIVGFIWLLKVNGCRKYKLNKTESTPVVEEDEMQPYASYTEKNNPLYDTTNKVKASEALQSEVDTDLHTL
Protocol: The cells were washed by centrifugation at 130 g for 5 minutes. The cells were seeded onto 96-well round-bottom plates (SPL, #34296) at a density of 1×10⁵ cells/well in Flow cytometry staining buffer (Invitrogen, #00-4222-26) or FACS buffer. […] After incubation for 1 hour at 4° C., the cells were treated with Alexa-647 Goat anti-human IgG (H+L) cross-adsorbed secondary antibody (Invitrogen, #A21445) and incubated at 4° C. for an additional 30 minutes. After washing twice with FACS buffer, flow cytometry analysis was performed using a Novocyte Flow cytometer (Agilent).

[2] = biological target: T2, mouse CD200R1 protein (R&D systems, 2554-CD) (mouse, UniProt Q9ES57 26-238, limits assumed); assay: ELISA, plate-bound mouse CD200R1 (2 ug/mL), IgG 0.0192-300 nM, OD 450 nm; panel 'mouse CD200R1'
T2 construct: Bought; construct not described
T2 sequence (looked up): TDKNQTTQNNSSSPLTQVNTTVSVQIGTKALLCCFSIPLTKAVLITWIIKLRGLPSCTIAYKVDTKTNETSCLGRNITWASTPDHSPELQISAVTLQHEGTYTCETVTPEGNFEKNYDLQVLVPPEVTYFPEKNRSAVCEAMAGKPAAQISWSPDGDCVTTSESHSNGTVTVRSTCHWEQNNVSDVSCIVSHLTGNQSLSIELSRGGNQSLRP
Procedure, shortened: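 Wells coated with antigen at 2 μg/mL (4 °C, 16 h) and blocked with 3% skim milk before IgG addition. Bound antibody developed with TMB, reaction stopped, absorbance read at 450 nm.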

[3] = biological target: T3, recombinant human CD200R1 Fc chimera protein, CF (R&D systems, 3414-CD) (human, UniProt Q8TD46 27-266); assay: competition ELISA: antibody on coated human CD200R1-Fc, competitor rhCD200-Fc at 1 µg/mL, bound CD200 detected
T3 construct: Bought; also called CD200R1-Fc protein; human CD200R1 Fc protein; Fc part of the bought chimera not given
T3 sequence (looked up): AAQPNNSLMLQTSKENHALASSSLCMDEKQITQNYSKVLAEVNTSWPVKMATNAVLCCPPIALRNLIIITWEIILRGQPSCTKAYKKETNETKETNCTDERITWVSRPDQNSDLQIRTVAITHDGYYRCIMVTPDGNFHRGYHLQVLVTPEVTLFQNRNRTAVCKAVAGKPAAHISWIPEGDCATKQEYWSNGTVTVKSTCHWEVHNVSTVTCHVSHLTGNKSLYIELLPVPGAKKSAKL
Protocol: 96-well plates were coated with human CD200R1 (R&D systems, 3414-CD) recombinant protein at a concentration of 2 μg/mL at 4° C. for 16 hours, and blocked with 3% skim milk for 1 hour. […] The result was washed with PBST and distilled water, and the samples were bound with Pierce™ High Sensitivity Streptavidin-HRP (Thermo Scientific, 21130) at room temperature for 1 hour, and then washed again with PBST and distilled water. TMB substrate solution (Thermo Scientific, 34029, 1-Step™ Ultra TMB-ELISA substrate solution) was added to develop the color. The reaction was stopped with stop solution (Invitrogen, SS04, ELISA Stop Solution).

[4] = biological target: T4, human CD200RLa (Sino Biological, 11620-H08H) recombinant protein (human, UniProt Q6Q8B3 24-239); assay: ELISA, plate-bound human CD200RLa (2 ug/mL), antibody 0.0192-300 nM, O.D 450 nm; panel 'recombinant human CD200RLa'
T4 construct: Bought; construct not described
T4 sequence (looked up): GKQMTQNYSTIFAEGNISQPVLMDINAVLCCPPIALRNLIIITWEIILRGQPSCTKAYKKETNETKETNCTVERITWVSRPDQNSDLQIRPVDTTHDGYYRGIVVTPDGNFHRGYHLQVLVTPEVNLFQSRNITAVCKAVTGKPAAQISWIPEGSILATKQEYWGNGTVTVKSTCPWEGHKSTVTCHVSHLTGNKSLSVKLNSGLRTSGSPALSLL
Procedure, shortened: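 Plates coated overnight (16 h, 4° C) with human or cynomolgus CD200RLa recombinant protein, blocked with 3% skim milk; bound antibody detected by TMB colour development, reaction stopped before reading.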

[5] = biological target: T3, recombinant human CD200R1 Fc chimera …; assay: ELISA, plate-bound human CD200R1-Fc (2 ug/mL), IgG 0.0192-300 nM, anti-human IgG F(ab')2-HRP, OD 450 nm; panel 'human CD200R1'
Protocol: (§1) 96-well plates were coated with human CD200R1 (R&D systems, 3414-CD) and mouse CD200R1 protein (R&D systems, 2554-CD) at a concentration of 2 μg/mL at 4° C. for 16 hours and then were blocked with 3% skim milk.
(§2) Color was developed with a TMB substrate solution (Thermo Scientific, 34029, 1-Step™ TMB-ELISA Ultra Substrate Solution). The color reaction was stopped with stop solution (Invitrogen, SS04, ELISA Stop Solution). The absorbance was measured at an optical density of 450 nm.

Hybrid CD200R1 MH = biological target: T5, Hybrid CD200R1 MH (mouse;human, UniProt Q9ES57;Q8TD46); assay: ELISA, plate-bound MH hybrid (1 ug/mL), antibody 0.0192-300 nM, O.D 450 nm; panel 'P001 MH domain-3)'
T5 construct: single domain; mouse D1 over human D2; also called MH hybrid domain; P001 MH domain
T5 sequence (hybrid extracellular part, looked up): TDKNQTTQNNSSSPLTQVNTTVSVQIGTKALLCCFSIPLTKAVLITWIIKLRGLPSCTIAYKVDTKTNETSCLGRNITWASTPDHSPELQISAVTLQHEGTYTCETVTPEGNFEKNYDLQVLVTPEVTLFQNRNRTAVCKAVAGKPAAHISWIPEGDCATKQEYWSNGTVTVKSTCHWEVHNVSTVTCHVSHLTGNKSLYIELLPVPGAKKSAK
Protocol: Recombinant proteins were produced from the extracellular Ig-like V-type domain and Ig-like C2-type domain of human CD200R1, each designed as human-mouse (HM hybrid domain) and mouse-human (MH hybrid domain) recombinant proteins. A 96-well plate was coated at a concentration of 1 μg/mL with each protein at 4° C. for 16 hours and blocked with 3% skim milk. […] After color development with TMB substrate solution (Thermo Scientific, 34029, 1-Step™ Ultra TMB-ELISA Substrate Solution), the color reaction was stopped with a stop solution (Invitrogen, SS04, ELISA Stop Solution), and the absorbance was measured at an O.D. of 450 nm.

[6] = biological target: T6, human CD200R1 recombinant protein (construct not stated) (human, UniProt Q8TD46 27-266, limits assumed); assay: ELISA on human CD200R1, O.D 450 nm, 0.0192-300 nM; panel 'P001_CD200R1 human 1'
T6 sequence (looked up): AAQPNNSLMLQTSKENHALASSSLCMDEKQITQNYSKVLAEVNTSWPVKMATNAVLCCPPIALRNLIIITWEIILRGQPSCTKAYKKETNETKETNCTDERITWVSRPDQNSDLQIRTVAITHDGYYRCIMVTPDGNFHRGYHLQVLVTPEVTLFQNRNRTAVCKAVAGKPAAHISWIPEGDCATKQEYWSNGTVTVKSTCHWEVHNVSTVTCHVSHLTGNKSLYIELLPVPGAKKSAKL
Protocol: as §1, §2
(§3) The secondary engineered antibodies were evaluated by ELISA in the same manner as in Examples described above.

[7] = biological target: T2, mouse CD200R1 protein (R&D systems, …); assay: ELISA on mouse CD200R1, O.D 450 nm, 0.0192-300 nM; panel 'P001_CD200R1 mouse 1'
Protocol: as §1, §2, §3

Binder | MFI normalized to P001017 (chimeric OX108), % [1] [%] | binding result [2] | IC50 [3] [nM] | binding result [4] | EC50 (read off the curve) [5] [nM] | binding result (Hybrid CD200R1 MH) | EC50 (read off the curve) [6] | binding result [7]
B1 | > 50 | no binding (tested: 300 nM) | 11.5 | no binding (tested: 300 nM) | ~0.8 |  |  | 
B2 |  | no binding (tested: 300 nM) |  | no binding (tested: 300 nM) |  | no binding (tested: 300 nM) |  | 
B3 |  |  |  | no binding (tested: 300 nM) |  |  | ~2 nM and ~4 nM | binds
